Consider 2 molecules from patent US20200399330A1, “ANTI-LEUKEMIC, ANTI-HIV, AND SIALIDASE ACTIVITIES OF ROYAL-JELLY PROTEINS” (priority 2018, published 2020).

Entries after “also recorded” stand apart in the source; their conditions may differ.

In series [1] the test system is murine myeloid (NFS-60) leukemia cells. As to the kind of experiment: Anti-leukemic activity, MTT assay and phase-contrast morphology, NFS-60. In kind it is cell-based. The settings on record: NFS-60, 72 h. On the procedure:
(§1) Anti-leukemic activity of RJ and its fractions, Both leukemia cells (NFS-60 and Jurkat) were seeded in RPMI containing 10% FBS as 3000 cells/well in 96 well cell culture plate. Then serial concentrations from the safe dose of each of the tested RJ and its fractions was added and incubated for 72 h in a 5% CO2 incubator at 37° C. The cytotoxic effect of RJ and its fractions in comparison with DOX against both leukemia cell lines were investigated using the MTT assay as described above. Then the concentration that inhibits leukemia cell growth by 50% (IG50 value) was determined for the RJ and each of its fractions and used to select the effective fraction (the lowest IG50 value). The morphological changes of untreated and treated leukemia cells were examined using the phase-contrast microscope.
(In general: Tetrazolium dyes change colour on reduction, which living cells bring about.)

Series [2] relates to human T lymphocyte (Jurkat) leukemia cells. As to the kind of experiment: Anti-leukemic activity, MTT assay and phase-contrast morphology, Jurkat. The class given is cell-based. The settings on record: 72 h. The method, then:
as §1

Series [3] relates to NFS-60 cells. In words: Fluorescence microscope investigation of apoptotic cells (EB/AO double staining), NFS-60. The settings on record: NFS-60, 72 h. In kind it is cell-based, murine. On the procedure:
(§2) Then leukemia cell apoptosis was investigated by ethidium bromide (EB)/acridine orange (AO) double staining (100 μg/mL for each) and then visualized under the fluorescent phase contrast microscope (Olympus, Japan).

Series [4] deals with Jurkat cells. As to the kind of experiment: Fluorescence microscope investigation of apoptotic cells (EB/AO double staining), Jurkat. In kind it is cell-based, human. The conditions noted are these: 72 h. On the procedure: as §2
For series [5], the system named is NFS-60 cells. In words: Flow cytometric analysis of apoptosis (annexin V/PI), NFS-60. In kind it is cell-based, murine. The settings on record: NFS-60, at IG50, 72 h. The method, then: (§3) Flow cytometric analysis of apoptosis, RJ, its effective fractions (CPF, PF50, MRJP2, and MRJP2 X1), and DOX at their IG50 was incubated for 72 h with each of the leukemia cell lines. After trypsinization, the untreated and treated cells were incubated with annexin V/propidium iodide (PI) for 15 min. Then cells were fixed and incubated with streptavidin-fluorescein (5 μg/mL) for 15 min. The apoptosis-dependent anti-leukemic effect was determined by quantification of annexin-stained apoptotic cells using the Fluorescein isothiocyanate (FITC) signal detector (FL1) in the flow cytometer (Partec, Germany).
In general terms: In flow cytometry, cells or beads pass a laser one at a time.

Series [6] deals with Jurkat cells. As to the kind of experiment: Flow cytometric analysis of apoptosis (annexin V/PI), Jurkat. In kind it is cell-based, human. The conditions noted are these: at IG50, 72 h. On the procedure:
as §3

Series [7] concerns NFS-60 cells. As to the kind of experiment: Cell cycle distribution by flow cytometry, NFS-60. In kind it is cell-based, murine. The settings on record: NFS-60, at IG50, 72 h. On the procedure: (§4) Briefly, the untreated and treated leukemia cells were incubated with 5 μg/mL RNase A (Sigma, USA) then mixed with 10 μl of 1 mg/mL PI (Sigma, USA) for flow cytometry analysis at 488 nm using Cell Quist and Mod Fit softwares.

The subject of series [8] is Jurkat cells. In words: Cell cycle distribution by flow cytometry, Jurkat. The class given is cell-based, human. The conditions noted are these: at IG50, 72 h. On the procedure: as §4
The subject of the next series is PBMCs. As to the kind of experiment: Sialidase activity (release of cellular SA), PBMCs. The class given is cell-based, human. The conditions noted are these: 2 h and 72 h incubation. The method, then:
(§5) The sialidase catalytic activity of the RJ isolated PFs was evaluated by incubating different concentrations (500, 250, 125, 62.5, 31.25) of each of the RJ-PFs (CPF, PF25, PF30, PF40, PF50, PF60, MRJP2 and MRJP2 isoform X1) with PBMCs or HepG2 cells at 37° C. for 2 h and 72 h. Two controls were included, each PF alone without cells and each cell alone without PF. At the end of the incubation period, the released SA concentration was quantified followed the previously published method.
(§6) Preparation of SA-attached cells, PBMCs were obtained by Ficoll-Hypaque density gradient centrifugation method as described previously. […] Finally, the supernatant was removed and the cells were suspended in 5 ml of RPMI-1640 medium containing 10% FBS and counted using trypan blue stain. […]
(§7) The SA assay, SA concentration was measured by the alkali-Ehrlich method using 0.2 M borate buffer at pH 8.5. After the incubation period (2 h or 72 h), cell culture was centrifuged at 2000 rpm for 15 min and the SA content was quantified in the supernatant. […] The developed violet color was read at 560 nm. The SA concentration (nmol/mL) was calculated from the standard SA calibration curve and used to calculate the sialidase activity of the RJPF as nmol/ml/min (IU). The specific activity (IU/mg protein) was calculated after determination of the protein content (mg/mL) in the supernatant using the Bradford method.

Another series concerns HepG2 cells. In words: Sialidase activity (release of cellular SA), HepG2. In kind it is cell-based. The settings on record: 2 h and 72 h incubation. The method, then: as §5, §6, §7

Turning to `COc1cccc2c1C(=O)c1c(O)c3c(c(O)c1C2=O)C[C@@](O)(C(=O)CO)C[C@@H]3O[C@H]1C[C@H](N)[C@H](O)[C@H](C)O1` [DOX, Doxorubicin, reference compound], the “IG50 (concentration that inhibits leukemia cell growth by 50%)” value in series [1] (MTT) and in [2] (MTT) was “significantly more potent than the tested fractions” in each case. The “apoptotic cell populations by EB/AO double staining” value in the series with NFS-60 cells [3] and with Jurkat cells [4] was “increased the number of the late apoptotic cells” throughout.

B1: MRJP2: bound protein purified from PF50 by CM-Sephadex ion-exchange chromatography (protein, UniProt O77061 18-452, looked up)
Major royal jelly protein 2: AIVRENSPRNLEKSLNVIHEWKYFDYDFGSEERRQAAIQSGEYDHTKNYPFDVDQWRDKTFVTILRYDGVPSTLNVISGKTGKGGRLLKPYPDWSFAEFKDCSKIVSAFKIAIDKFDRLWVLDSGLVNRTVPVCAPKLHVFDLKTSNHLKQIEIPHDIAVNATTGKGGLVSLAVQAIDLANTLVYMADHKGDALIVYQNADDSFHRLTSNTFDYDPRYAKMTIDGESFTLKNGICGMALSPVTNNLYYSPLASHGLYYVNTAPFMKSQFGENNVQYQGSEDILNTQSLAKAVSKNGVLFVGLVGNSAVGCWNEHQSLQRQNLEMVAQNDRTLQMIAGMKIKEELPHFVGSNKPVKDEYMLVLSNRMQKIVNDDFNFDDVNFRILGANVKELIRNTHCVNNNQNDNIQNTNNQNDNNQKNNKKNANNQKNNNQNDN
Take B1: the “morphological changes under the phase contrast microscope” value in series [1] is listed as “hallmarks of the apoptosis, which observed obviously”; in [2] it was “hallmarks of the apoptosis, which observed obviously”. Further, the “% apoptotic cells (annexin V/PI)” value in the series with NFS-60 cells [5] and in the series on Jurkat cells [6] was “inducing apoptosis; also recorded: highest percentage of the apoptotic cell populations” throughout. The “apoptotic cell populations by EB/AO double staining” value in the series on NFS-60 cells [3] and in the series with Jurkat cells [4] was “increased the number of the late apoptotic cells” each time. The “cell cycle distribution (G0, G1, S, G2/M)” value with NFS-60 cells [7] and in the series with Jurkat cells [8] was “almost completely blocking the cell cycle G0 phase; also recorded: the most effective fraction with the same or higher potency than DOX” each time. Also, the “sialidase activity (released SA)” value with PBMCs and with HepG2 cells was “proven their sialidase activity” each time.
